Laboratory results reported in US6969760 (ST JUDE CHILDREN S RESEARCH HOSPITAL, dated 2005).

Key:
Assay in all cases: pull-down from DA3(EPOR) cell extracts on GST-EPOR cytoplasmic domain beads, immunoblot
[1] = molecular target: T1, murine Tec (murine, UniProt P24604 1-630, limits assumed)
T1 sequence (looked up): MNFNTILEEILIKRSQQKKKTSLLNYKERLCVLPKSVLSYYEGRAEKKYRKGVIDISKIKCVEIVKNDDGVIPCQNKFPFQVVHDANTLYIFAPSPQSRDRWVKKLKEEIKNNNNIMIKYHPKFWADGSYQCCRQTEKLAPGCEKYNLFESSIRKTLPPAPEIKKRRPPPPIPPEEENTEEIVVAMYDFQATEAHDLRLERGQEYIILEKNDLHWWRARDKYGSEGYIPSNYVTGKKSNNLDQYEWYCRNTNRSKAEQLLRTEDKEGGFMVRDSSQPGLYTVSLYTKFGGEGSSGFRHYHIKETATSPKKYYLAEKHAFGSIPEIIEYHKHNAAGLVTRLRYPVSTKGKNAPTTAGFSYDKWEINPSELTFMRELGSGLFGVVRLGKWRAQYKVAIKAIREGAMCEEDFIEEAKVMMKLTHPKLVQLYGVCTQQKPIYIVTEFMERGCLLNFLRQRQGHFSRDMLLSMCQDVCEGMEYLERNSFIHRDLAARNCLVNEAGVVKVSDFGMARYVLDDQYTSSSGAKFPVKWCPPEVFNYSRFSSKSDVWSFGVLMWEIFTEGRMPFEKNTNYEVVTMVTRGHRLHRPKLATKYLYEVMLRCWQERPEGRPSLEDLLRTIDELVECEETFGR
Procedure: (§1) The fusion proteins were purified by affinity binding to glutathione-sepharose beads and the proteins, on affinity beads, were incubated with extracts of unstimulated or EPO stimulated DA3(EPOR) cells. The bound proteins were recovered from the beads, resolved on SDS-PAGE and the gels blotted to nitrocellulose. The blots were subsequently probed with antisera against various tyrosine kinases.

[2] = molecular target: c-fes (UniProt P16879 1-822)
Procedure: as §1

[3] = molecular target: T2, lyn (UniProt P25911 2-512, limits assumed)
T2 construct: also called lyn kinase
Procedure: as §1

Measured: binding result

T2 sequence (P25911 2-512 limits assumed): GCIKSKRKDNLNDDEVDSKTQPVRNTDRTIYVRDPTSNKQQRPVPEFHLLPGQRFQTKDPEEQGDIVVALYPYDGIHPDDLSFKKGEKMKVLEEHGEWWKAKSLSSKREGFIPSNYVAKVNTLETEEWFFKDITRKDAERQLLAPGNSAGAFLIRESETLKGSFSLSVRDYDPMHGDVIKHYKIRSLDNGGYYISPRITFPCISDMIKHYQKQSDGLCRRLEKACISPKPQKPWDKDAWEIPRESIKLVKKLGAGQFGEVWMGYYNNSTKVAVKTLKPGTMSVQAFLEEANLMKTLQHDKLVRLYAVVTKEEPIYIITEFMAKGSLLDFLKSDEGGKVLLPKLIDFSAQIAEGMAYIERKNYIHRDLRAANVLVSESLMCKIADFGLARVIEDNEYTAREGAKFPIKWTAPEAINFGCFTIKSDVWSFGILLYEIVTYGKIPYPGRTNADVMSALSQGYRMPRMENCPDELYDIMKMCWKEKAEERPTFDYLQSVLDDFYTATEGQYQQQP
Sequence of c-fes (P16879 whole entry): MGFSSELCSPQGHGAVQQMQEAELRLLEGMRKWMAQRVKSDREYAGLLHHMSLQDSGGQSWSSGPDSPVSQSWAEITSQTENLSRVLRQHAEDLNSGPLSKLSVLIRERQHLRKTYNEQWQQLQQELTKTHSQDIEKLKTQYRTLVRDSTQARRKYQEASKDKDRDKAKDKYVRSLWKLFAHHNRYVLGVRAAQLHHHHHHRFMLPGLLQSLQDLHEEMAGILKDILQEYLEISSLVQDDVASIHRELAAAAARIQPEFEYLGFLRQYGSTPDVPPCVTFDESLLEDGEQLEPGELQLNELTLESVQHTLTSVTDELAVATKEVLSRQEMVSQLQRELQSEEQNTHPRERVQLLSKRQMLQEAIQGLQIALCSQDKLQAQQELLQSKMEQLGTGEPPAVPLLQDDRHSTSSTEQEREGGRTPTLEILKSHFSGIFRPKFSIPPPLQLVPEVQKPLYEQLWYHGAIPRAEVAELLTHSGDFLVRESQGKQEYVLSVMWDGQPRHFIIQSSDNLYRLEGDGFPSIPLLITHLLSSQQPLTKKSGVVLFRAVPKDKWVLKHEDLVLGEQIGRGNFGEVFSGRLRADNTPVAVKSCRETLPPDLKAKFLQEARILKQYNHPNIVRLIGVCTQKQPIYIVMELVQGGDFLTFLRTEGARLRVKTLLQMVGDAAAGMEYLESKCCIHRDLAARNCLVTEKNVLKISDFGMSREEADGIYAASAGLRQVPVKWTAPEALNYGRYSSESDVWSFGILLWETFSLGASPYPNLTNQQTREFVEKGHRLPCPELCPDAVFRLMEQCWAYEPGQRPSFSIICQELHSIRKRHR

B1: GST fusion protein containing the full length murine EPOR cytoplasmic domain (amino acids 257-483) (other, UniProt P14753 281-507, looked up)
chain: IWPGIPSPESEFEGLFTTHKGNFQLWLLQRDGCLWWSPGSSFPEDPPAHLEVLSEPRWAVTQAGDPGADDEGPLLEPVGSEHAQDTYLVLDKWLLPRTPCSENLSGPGGSVDPVTMDEASETSSCPSDLASKPRPEGTSPSSFEYTILDPSSQLLCPRALPPELPPTPPHLKYLYLVVSDSGISTDYSSGGSQGVHGDSSDGPYSHPYENSLVPDSEPLHPGYVACS
notes: range 257-483; Expressed in E. coli and immobilised on glutathione-sepharose; also called GST-EPOR fusion protein; fusion protein containing the complete cytoplasmic domain; not shown: amino-terminal glutathione-S-transferase (GST) domain encoded by pGEX-2T
no binding: [1] | [2] | [3]
